# Test results as given in patent US7560106B2, “Rationally designed heparinases derived from heparinase I and II and methods of sequencing therewith” (Massachusetts Institute of Technology, priority 1998, dated 2009).
# Substitutions are numbered along the chain they refer to. Names may count otherwise. “Also recorded” adds a separate entry of the source.
# B1: T373A: heparinase I CB-2 mutant, threonine 373 changed to alanine (protein, UniProt Q05819 22-384, looked up, variant T373A)
# Heparin lyase I: QQKKSGNIPYRVNVQADSAKQKAIIDNKWVAVGINKPYALQYDDKLRFNGKPSYRFELKAEDNSLEGYAAGETKGRTELSYSYATTNDFKKFPPSVYQNAQKLKTVYHYGKGICEQGSSRSYTFSVYIPSSFPDNATTIFAQWHGAPSRTLVATPEGEIKTLSIEEFLALYDRMIFKKNIAHDKVEKKDKDGKITYVAGKPNGWKVEQGGYPTLAFGFSKGYFYIKANSDRQWLTDKADRNNANPENSEVMKPYSSEYKTSTIAYKMPFAQFPKDCWITFDVAIDWTKYGKEANTILKPGKLDVMMTYTKNKKPQKAHIVNQQEILIGRNDDDGYYFKFGIYRVGNSTVPVAYNLSGYSETAR
# B2: Y379A: heparinase I CB-2 mutant, tyrosine 379 changed to alanine (protein, UniProt Q05819 22-384, looked up, variant Y379A)
# Heparin lyase I: B1 Heparin lyase I with A352T, Y358A
# B3: G378A: heparinase I CB-2 mutant, glycine 378 changed to alanine (protein, UniProt Q05819 22-384, looked up, variant G378A)
# Heparin lyase I: B1 Heparin lyase I with A352T, G357A
# B4: T382A: heparinase I CB-2 mutant, threonine 382 changed to alanine (protein, UniProt Q05819 22-384, looked up, variant T382A)
# Heparin lyase I: B1 Heparin lyase I with A352T, T361A
# B5: S377A: heparinase I mutant where serine 377 is mutated to alanine; calcium-independent (protein, UniProt Q05819 22-384, looked up, variant S377A)
# Heparin lyase I: B1 Heparin lyase I with A352T, S356A
# B6: D210A: heparinase I CB-1 mutant, aspartate 210 changed to alanine (protein, UniProt Q05819 22-384, looked up, variant D210A)
# Heparin lyase I: B1 Heparin lyase I with D189A, A352T
# B7: D210A/D212A: heparinase I CB-1 double mutant (protein, UniProt Q05819 22-384, looked up, variant D210A D212A)
# Heparin lyase I: B1 Heparin lyase I with D189A, D191A, A352T
# B8: D212A/T216A: heparinase I CB-1 double mutant (protein, UniProt Q05819 22-384, looked up, variant D212A T216A)
# Heparin lyase I: B1 Heparin lyase I with D191A, T195A, A352T
# B9: G213A: heparinase I CB-1 mutant, glycine 213 changed to alanine (protein, UniProt Q05819 22-384, looked up, variant G213A)
# Heparin lyase I: B1 Heparin lyase I with G192A, A352T
# B10: G213A/T216A: heparinase I CB-1 double mutant (protein, UniProt Q05819 22-384, looked up, variant G213A T216A)
# Heparin lyase I: B1 Heparin lyase I with G192A, T195A, A352T
# B11: E207A/D210A: heparinase I CB-1 double mutant (protein, UniProt Q05819 22-384, looked up, variant E207A D210A)
# Heparin lyase I: B1 Heparin lyase I with E186A, D189A, A352T
# B12: D212A: heparinase I CB-1 mutant, aspartate 212 changed to alanine (protein, UniProt Q05819 22-384, looked up, variant D212A)
# Heparin lyase I: B1 Heparin lyase I with D191A, A352T
# B13: E381A/T382A: heparinase I CB-2 double mutant (protein, UniProt Q05819 22-384, looked up, variant E381A T382A)
# Heparin lyase I: B1 Heparin lyase I with A352T, E360A, T361A
# B14: E207A/D212A: heparinase I CB-1 double mutant (protein, UniProt Q05819 22-384, looked up, variant E207A D212A)
# Heparin lyase I: B1 Heparin lyase I with E186A, D191A, A352T
# B15: T216A: heparinase I CB-1 mutant, threonine 216 changed to alanine (protein, UniProt Q05819 22-384, looked up, variant T216A)
# Heparin lyase I: B1 Heparin lyase I with T195A, A352T
# Experiment: Heparin-POROS affinity chromatography
# Type: binding
# Conditions: not given
# Experimental: Heparin-POROS chromatography: About 30-40 μg of -L r-heparinase I and the various mutant enzymes were injected into a heparin POROS (4.6 mm×100) column (PerSeptive BioSystems, Framingham, Mass.) connected to BioCAD system (PerSeptive BioSystems). Proteins were eluted using a linear gradient of […] NaCl in 10 min (10 mM Tris, 1 mM EDTA pH 7.0) and monitored at 210 nm. EDTA was added to chelate any calcium ions that may be present in the buffers.
row,Molecule,"elution salt concentration / heparin binding relative to wild-type r-heparinase I, in words"
1,B1,comparable to wild-type r-heparinase I
2,B2,comparable to wild-type r-heparinase I
3,B3,comparable to wild-type r-heparinase I
4,B4,comparable to wild-type r-heparinase I
5,B5,comparable to wild-type r-heparinase I

# Same assay, conditions: salt concentration at which enzyme elutes from heparin-POROS column; 10 mM Tris, 1 mM EDTA pH 7.0
row,Molecule,NaCl
1,B6,500 mM
2,B7,515 mM
3,B8,497 mM
4,B9,476 mM
5,B1,480 mM
6,B10,498 mM
7,B2,489 mM
8,B11,513 mM
9,B12,498 mM
10,B13,505 mM
11,B3,489 mM
12,B4,488 mM
13,B14,513 mM
14,B5,486 mM
15,B15,479 mM

# Experiment: Heparinase I UV 232 nm activity assay as a function of heparin concentration (Kcat, Km)
# Type: biochemical, porcine
# Conditions: not given
# From the text: Heparinase II Activity Assay. Native heparinase II from Flavobacterium heparinum, was purified as described previously (Godavarti, R., and Sasisekharan, R (1996c) Biochem. Biophys. Res. Comm. 229, 770-777). The UV 232 nm assay to quantify native heparinase II enzymatic activity was similar to that reported for heparinase I (Bernstein, H., Yang, V. C., Cooney, C. L., Langer, R. (1988) Meth. Enzym. 137, 515-29). Briefly, the course of the reaction is monitored by measuring the increase in absorbance at 232 nm as a function of time under saturating substrate concentrations. With heparin as the substrate, the reaction was carried out at a concentration of 4 mg/ml in 50 mM sodium phosphate buffer, pH 7.3. With 2 mg/ml heparan sulfate, the reaction was measured in 50 mM sodium phosphate buffer, pH 6.9 (Sasisekharan, R., Moses, M. A., Nugent, M. A., Cooney, C. L., Langer, R. (1994) Proc. Natl. Acad. Sci., USA 91, 1524-1528). The temperature for all enzymatic activity measurements was kept constant at 35° C.
# Heparinase I Activity Assay. The UV 232 nm assay to quantify heparinase I enzymatic activity was similar to that described in Example 1. With heparin as the substrate, the reaction was carried out at a concentration of 4 mg/ml in 100 mM MOPS, 5 mM calcium acetate, pH 7.0. The temperature for all enzymatic activity measurements was kept constant at 30° C. For the inactivation kinetic profiles, activity was measured as outlined above at precise time points.
# (§1) Heparinase I Activity Assays: The UV 232 nm assay was used as described in Example 1. When measuring the enzyme activity as a function of heparin concentration, heparin concentrations varied from 0 to 4 mg/ml at a fixed calcium concentration of 5 mM (100 mM MOPS buffer/5 mM calcium acetate, pH 7.0). The data was then fit to an non-linear equation to determine Kcat and Km of heparinases I. Heparinase mutant activity was also investigated as a function of calcium concentration ranging from 0 to 10 mM. […] Activity is expressed as IU-μmol product formed/min using ∈=−3800-M^−1CM^−1.
row,Molecule,decrease in Kcat compared to wild-type r-heparinase I
1,B7,4.5 fold
2,B9,about 3 fold
3,B10,5 fold
4,B2,about 10 fold
5,B15,~2 fold

# Same assay, conditions: compared to wild-type r-heparinase I
row,Molecule,"effect on enzyme activity (kcat), in words"
1,B1,no significant decrease in enzyme activity
2,B3,decreased only by about 1 half
3,B4,decreased only by about 1 half
4,B5,no significant decrease in enzyme activity

# Same assay, conditions: heparin 0 to 4 mg/ml, 5 mM calcium acetate, 100 mM MOPS, pH 7.0
row,Molecule,Kcat
1,B6,74 s⁻¹
2,B7,21 s⁻¹
3,B8,52 s⁻¹
4,B9,28 s⁻¹
5,B1,85 s⁻¹
6,B10,19 s⁻¹
7,B2,9 s⁻¹
8,B11,65 s⁻¹
9,B12,65 s⁻¹
10,B13,10 s⁻¹
11,B3,41 s⁻¹
12,B4,65 s⁻¹
13,B14,58 s⁻¹
14,B5,71 s⁻¹
15,B15,50 s⁻¹

# Same assay, conditions: heparin 0 to 4 mg/ml, 5 mM calcium acetate, pH 7.0
row,Molecule,Km
1,B6,2.64 µM
2,B7,0.32 µM
3,B8,1.52 µM
4,B9,0.97 µM
5,B1,0.96 µM
6,B10,0.83 µM
7,B2,0.32 µM
8,B11,2.77 µM
9,B12,1.94 µM
10,B13,1.75 µM
11,B3,0.74 µM
12,B4,1.64 µM
13,B14,0.93 µM
14,B5,2.74 µM
15,B15,1.45 µM

# Experiment: Heparinase I activity as a function of calcium concentration (K0.5, calcium dependence)
# Type: biochemical
# Conditions: not given
# Experimental: as §1
row,Molecule,dependence of enzyme activity on calcium
1,B5,loss of dependence on calcium; also recorded: calcium-independent

# Same assay, conditions: Table 4 second K0.5 column
row,Molecule,K0.5
1,B6,310 µM
2,B7,700 µM
3,B8,320 µM
4,B9,740 µM
5,B1,50 µM
6,B10,2200 µM
7,B2,230 µM
8,B11,470 µM
9,B12,370 µM
10,B13,180 µM
11,B3,80 µM
12,B4,100 µM
13,B14,710 µM
14,B5,50 µM
15,B15,430 µM

# Same assay, conditions: calcium concentration at which half of the maximum enzyme activity was observed; calcium 0 to 10 mM; Table 4 first K0.5 column
row,Molecule,K0.5
1,B6,310 µM
2,B7,700 µM
3,B8,320 µM
4,B9,740 µM
5,B1,50 µM
6,B10,2200 µM
7,B2,230 µM
8,B11,470 µM
9,B12,370 µM
10,B13,180 µM
11,B3,80 µM
12,B4,100 µM
13,B14,710 µM
14,B5,50 µM
15,B15,430 µM
